Results as given in the DeepSol protein solubility set.

Assay: soluble on expression in E. coli; label from the status in PepcDB or PDB records

Sequence	soluble on expression in E. coli
MGSDKIHHHHHHMTICYNFAYLDEGTKKKIRRTLLKAVAIPGHQIPFASREMPLPYGWGTGGIQVTAAVIGPEDILKVIDQGSDDTTNAVSIRNFFRSTTGVRTTTSTREATLIQTRHRIPETPLHAGQMLIYQVPMPEPLFKLEPRVSETIALHAMADYSLMYLKLYDQITRYGRIAIGYEYPVIVHDRYLTSSSPIPAYDVPKMHMSPALQLFGAGREKRLYAIPPYTRVIPLDFTDYPFDPVNTWQPCALCGAVESYKDEIVIDDAGNRQFICSDTDFCEHRR	not soluble
MANDIDRAGVAKAYARWAPIYDLVFGKVFDSGRQSTIAVADAIGGRVLDVGVGTGLSLSDYSKTTRLCGVDISEPMLRKAHERVRTLNLSNVDVLAVMDAKNLAFPANYFDAVVAQYVITAVPDPEATLDDFIRVLKPGGELILVNHIGAESGPRKLFELAFSPIARRLGWRPEFPWQRLVNWAARHRGVELAERRPMPPMGHFSLIRYRKLLEHHHHHH	not soluble
TTLSCKVTSVEAITDTVYRVRIVPDAAFSFRAGQYLMVVMDERDKRPFSMASTPDEKGFIELHIGASEINLYAKAVMDRILKDHQIVVDIPHGEAWLRDDEERPMILIAGGTGFSYARSILLTALARNPNRDITIYWGGREEQHLYDLCELEALSLKHPGLQVVPVVEQPEAGWRGRTGTVLTAVLQDHGTLAEHDIYIAGRFEMAKIARDLFCSERNAREDRLFGDAFAFI	soluble
MLYDLAKQRKTVRKFKEEKPSIEKLMYCLKVANEAPSGMNAQPWRFLVVKDEETKRQIRETCEKAEKDFYENVRGKLKEWLNENSFNWKKPFLEEAPYLLLVFSKKDAPYSRESVWLAIGYLLLALEEQGLGTVPYTPPNPNELTKIVNTPSDLRFEVILPVGYPDDPKPKYPREEMKVSFNHF	not soluble
GPGSMTSKKAAKEKDEYTPQERLTAAALEYKKLEGHNQSSIERMYGALSSPFRVSNKPCEVPRAAVLRCFEEILGKTNNGENGSTDNLAETTVVGRSISGGNNADGRVLLSSDSRFPSVHRCYDAVLQYESCVVEKTLAQHHSLLAGFEARQLQEAESANEVPKAVASGA	not soluble
SMATKIDKEACRAAYNLVRDDGSAVIWVTFKYDGSTIVPGEQGAEYQHFIQQCTDDVRLFAFVRFTTGDAMSKRSKFALITWIGENVSGLQRAKTGTDKTLVKEVVQNFAKEFVISDRKELEEDFIKSELKKAGGANYDAQTE	soluble
MGSDKIHHHHHHMEANSIDVNSILANKNLIIKFQPVVSVIKKSVIGLEAVCLGSSDDNGGIISTSKLFKTAEEQGVLIELDRLYREKAVKEFVKVYKRNKELLLFLDINISIIDKYVGSGIIMNLISDSGISTNNVVLQIIEGKMTNLEALKKFIYLYRSNGFLVALKDLGTGFANMDKISYVEPDIIKINSVLTKGIEVDYYRQEVFRSLVNLSKKIGALVVCEDIASEQETMMIMELGADMLEGSYFENDFDLGEKFLDASRKLIDATAVKYEKYTEEEVKAKEMIYSGYDFVINEALKELSSLTEDKFDDSINTVINKNSKLECVYVLNKEGIQVGSTATRFTDMVPQRALIFEPAQKGTNHSLKKYYYFLKTMSLNKYVTEPYISLATGNLCITISAVFKNLEGKEYILCVDFNPNYMSM	not soluble
MTQIPPSRLHSPLDRLLVEAQRALDTVFGNPPAERPNPAGDTPDAALAPAQRQHAAGLMRINHVGEVCAQGLYFGQAAVARDDHTRQHLLTAAQEETDHLAWCADRLRELESRPSLFNPLWYAGSYALGAVAGLRGDDWSLGFVVETERQVEAHLDEHLETLPETDQRSRAILRVMKIDEARHADHAEQAGARILPPPIPSAMALASKLMKTIAYRFLEHHHHHH	not soluble
MSLDNFLTTGFLDIIPLSQPLEFRREGLQHGVLDKLRSGKYPQQASLNLLRQPVEECRKMMFSFIQQAMADGLRNVLIIHGKGREDKSHANIVRSYVARWLTEFDDVQAYCTALPHHGGSGACYVALRKTAQAKQENWERHAKRSREGHHHHHH	not soluble
MLRLQMTDGHISCTAVEFSYMSKISLNTPPGTKVKLSGIVDIKNGFLLLNDSNTTVLGGEVEHLIEKWELQRSLSKHNRSNIGTEGGPPPFVPFGQCVSRVQVDSRELDRRKTLQVTMPVKPTNDNDEFEKQRTAAIAEVAKSKETKTFGGGGGGARSNLNMNAAGNRNREVLQKEKSTKSEGKHEGVYRELVDEKALKHITEMGFSKEASRQALMDNGNNLEAALNVLLTSNKQKPVMGPPLRGRGKGRGRIRSEDEEDLGNARPSAPSTLFDFLESKMGTLNVEEPKSQPQQLHQGQYRSSNTEQNGVKDNNHLRHPPRNDTRQPRNEKPPRFQRDSQNSKSVLEGSGLPRNRGSERPSTSSVSEVWAEDRIKCDRPYSRYDRTKDTSYPLGSQHSDGAFKKRDNSMQSRSGKGPSFAEAKENPLPQGSVDYNNQKRGKRESQTSIPDYFYDRKSQTINNEAFSGIKIEKHFNVNTDYQNPVRSNSFIGVPNGEVEMPLKGRRIGHIKPAGPVTAVPCDDKIFYNSGPKRRSGPIKPEKILESSIPMEYAKMWKPGDECFALYWEDNKFYRAEVEALHSSGMTAVVKFIDYGNYEEVLLSNIKPIQTEAWEEEGTYDQTLEFRRGGDGQPRRSTRPTQQFYQPPRARN	not soluble
MSLGAGQPLGGYAEDLEGRQADLPKYSRANVRIVFAAVFPESNVYQGGEGYPTPSSSRLLLLDQVKTYYALSSIHGVEIIESWRSAQEVLEAPRWRLGLLLHLEGADALADILDLELLHRLGFRSLGLTWNHDNRWAASCKTRRDYGLTQSGEDLVKKAAELGVIIDLAHASDKTVADAASASPKPVIVSHANFRWKVDSPRNVGEEAVEAVVSKGGVIGYSLISTLITRGRHPTLHDVASQMAEFVEVYGHRHLAIGTDYHGLLDIRPPTGLESIDRLPRLLEALADAGLSDRQIEAIAYGNIARVIREVLPGSEGHHHHHH	soluble
VLHQPPAMSSALGTTIRLTCTLRNDHDIGVYSVYWYQQRPGHPPRFLLRYFSQSDKSQGPQVPPRFSGSKDVARNRGYLSISELQPEDEAMYYCAMGARSTHVFGSGTQLTVLSAA	soluble
MIRFARPKPIIDSVSYNLLQKCYASGTPKGKSKLKTGQSLKRNKLTIKKGGGNGGGRGGDEVDKGKGRISDQCINAPCPVRYLRPKEREREARREKLGLISKARQKEIDFQKKGGSFTMGVTTAPMRIGTPGLDYISLGIFTEDELPKYKVTVEDGIRLAKEYSRVLMREHRARRVAEISLMKMRNAAVEALPENLKKAALVRDLTPFPVSRGTVRLLHLLKGIWRGL	soluble
MAHHHHHHMLQRSLARLCAAAQRQGNKALAAEGRSFALVNREVTAIKEHIQSLVTNTNNEVLDHAGKYVLAAGGKLMRPALVVLMAHAMLPLDVSAHLLEEPIGSLDEVTPGTILPFLRLAEVTELIHTASLLHDDVIDNTDTRRGRPALHKVYDAKRAVLAGDYMLARASFYIATLQVPRIVILMTTALEELTSGELMQMDGCFDIPRYEQKSFCKTASLIANSLASTAVLAGPGNEALEQTAFDFGKHLGIAFQILDDCLDITGDEKMLGKPKLVDMKEGIATIPVLLVARRNAKVAEMVCRRFAEPGDAEFCLEAVEKEGAVAEAMHRADEHCRLGLESLHKLHHSPARDALESALSMVMNRKS	not soluble
MPRRAPAFPLSDIKAQMLFANNIKAQQASKRSFKEGAIETYEGLLSVDPRFLSFKNELSRYLTDHFPANVDEYGRVYGNGVRTNFFGMRHMNGFPMIPATWPLASNLKKRADADLADGPVSERDNLLFRAAVRLMFSDLEPVPLKIRKGSSTCIPYFSNDMGTKIEIAERALEKAEEAGNLMLQGKFDDAYQLHQMGGAYYVVYRAQSTDAITLDPKTGKFVSKDRMVADFEYAVTGGEQGSLFAASKDASRLKEQYGIDVPDGFFCERRRTAMGGPFALNAPIMAVAQPVRNKIYSKYAYTFHHTTRLNKEEKVKEWSLCVATDVSDHDTFWPGWLRDLICDELLNMGYAPWWVKLFETSLKLPVYVGAPAPEQGHTLLGDPSNPDLEVGLSSGQGATDLMGTLLMSITYLVMQLDHTAPHLNSRIKDMPSACRFLDSYWQGHEEIRQISKSDDAMLGWTKGRALVGGHRLFEMLKEGKVNPSPYMKISYQHGGAFLGDILLYDSRREPGSAIFVGNINSMLNNQFSPEYGVQSGVRDRSKRKRPFPGLAWASMKDTYGACPIYSDVLEAIERCWWNAFGESYRAYREDMLKRDTLELSRYVASMARQAGLAELTPIDLEVLADPNKLQYKWTEADVSANIHEVLMHGVSVEKTERFLRSVMPR	soluble
MAHHHHHHMDEGDHSDKESVGEEIVGEDHVEDKDGKPKRSYEKMVEEIKIENSKSFISKISEPLLKKKYFKYFLKILDYAYYAKVTAMQIIKTNEQIEERKKKILKNKFVVIGITQVVKAIRKGVDGIVFLAIDVFPIDIICHMPVFCEEHKIPYTFVTTKNKLARLCKLKRSVTCLFLPKPNIDIDKFEATVNEFSSKKKISNYAKLYEKMLSGVKKNHPFFQS	soluble
MAMVIPARNQMASQFLELPKRTSSLMAPTMVLQGHGGEIYTSQFSSDGSFLASAGYDQQIFLWNVFGECENFAVLKGHKGAIMEVKFNADSSHLVSAGTDKTVRVWDMETGSCIRNFKSHTDIVNSVDVNRRGPQMICSASDDGTVMVHDMRSKEAAKKFICKYQQTAVTFNDAADNVICGGIDNQIKVWDMLRNDVRYVLSGHRDTITSLSVSHNGNFLLSNSMDCSLMSWDIRPFVPAQRLVARYQGASHNFEKNLLKCGWSPRDNYITAGSADRFVYVWNAKSRACVYKLPGHLGSVNCTALHPTQQILLSAGSDKTIFLGELDLEDY	not soluble
MGSDKIHHHHHHMNELTKQLQEIMVPKAALIAYEYQEGHYASGSHYLELRPINKKGRMEAGIPVTYEFMDSLVESYSDGNRRIPHGWLPPNMLWCDTRRGHESYVWYNPPGKRRMFFKNDLNIGDGMFHVPGVIYIIKNERMDIFAYKGKKPDGRTPLYLAPFFNVTGGNVCLGNSTLEKPESLDFHTLLEYWEKRFWLSEFSHLGGGKNPTRNNLVLVTERMREQPFDNDELQPINKRLKDILP	not soluble
MNCAISGEVPEEPVVSKKSGLLYEKRLIQTHISDYGKCPVTGEPHTLDDIVPIKTGKIVKPKPLHTASIPGLLGTFQTEWDSLMLSNFALEQQLHTARQELSHALYQHDAACRVIARLKKERDESRQLLAEAERQLPAAPEVATSNAALSNGKRGIDDGEQGPNAKKMRLGISAEVITELTDCNAALSQQRKKRQIPKTLASVDALEKFTQLSSHPLHKTNKPGIFSMDILHSKDVIATGGIDTTAVLFDRPSGQILSTLTGHSKKVTSIKFVGDTDLVLTASSDKTVRIWGCSEDGNYTSRHTLKDHSAEVRAVTVHATNKYFVSASLDSTWCFYDLSSGLCLAQVTDASENDVNYTAAAFHPDGLILGTGTAQSIVKIWDVKSQANVAKFGGHNGEITSISFSENGYFLATAALDGVRLWDLRKLKNFRTFDFPDANSVEFDHSGSYLGIAASDIRVFQAASVKAEWNPIKTLPDLSGTGKATSVKFGLDSKYIAVGSMDRNLRIFGLPDDDNTEDSAQDS	soluble
SLADYYQVQLNMMPPVNLTVLDHCVENYSWNQMMEQAKLYADMFGFHKYWSVDEDDISTGFTALRSIVMSSSNGQIKMPINEPVKSIMKGQIEEFNDFNGGPGIQHIAFRTNNIIETVMALMQRGVEFNHTSENYYNNLKQRLNNDGIKLYEDFDTLRSLNILIDYDPSEG	not soluble
MQFLSPLILFTSCTLLATSLLAAEQAPPPSECLIKSQQISSQIQDAKTEGNKAEQSGLEKALAEVNANCTETSLLKQREQKVLDAKREVSRRQTDLNKAMDKGDPEKINKRKDKLAESRKELQEAQTDLEKVQSDDLEHHHHHH	not soluble
GAMEDKVDAIREAIARNPQEIFQYVRLSQVKRDDKVLGYRVSPGKDPVLFESIGLQDGDMAVALNGLDLTDPNVMNTLFQSMNEMTEMSLTVERDGQQHDVYIQF	soluble
